From the Human Domainome abundance scans (Beltran et al. 2025) come the findings set out here.

± gives the uncertainty stated by the source.

The nature of the series: abundance fitness (aPCA) (normalised: wild type 0, dead -1); higher = more abundant; growth selection in yeast, the domain comes from the species named. The following applies: Homo sapiens.
Take “Transcriptional activator Myb K204N, P10242”: the abundance fitness is -0.153 ± 0.097. The figure for “Transcriptional activator Myb K204Q, P10242” is 0.192 ± 0.19; for “Transcriptional activator Myb K204R, P10242” it is 0.066 ± 0.12; for “Transcriptional activator Myb K204T, P10242” it is -0.012 ± 0.13.

For the substance “Transcriptional activator Myb K204V, P10242”, the abundance fitness was -0.29 ± 0.22. In turn, “Transcriptional activator Myb K204W, P10242” showed an abundance fitness of -0.443 ± 0.11. As for “Transcriptional activator Myb K204Y, P10242”, the figure is -0.16 ± 0.25. As for “Transcriptional activator Myb L172A, P10242”, the abundance fitness was -0.291 ± 0.076.

For the substance “Transcriptional activator Myb L172C, P10242”, the abundance fitness was -0.268 ± 0.14. The figure for “Transcriptional activator Myb L172E, P10242” is -0.177 ± 0.089. As for “Transcriptional activator Myb L172F, P10242”, the figure is -0.35 ± 0.24; as for “Transcriptional activator Myb L172H, P10242”, -0.173 ± 0.14.

Turning to “Transcriptional activator Myb L172I, P10242”, the abundance fitness is -0.354 ± 0.16. As for “Transcriptional activator Myb L172K, P10242”, the figure is -0.108 ± 0.1; as for “Transcriptional activator Myb L172M, P10242”, -0.175 ± 0.09. As to “Transcriptional activator Myb L172N, P10242”, the abundance fitness was -0.34 ± 0.14. As for “Transcriptional activator Myb L172P, P10242”, the figure is -0.486 ± 0.19; as for “Transcriptional activator Myb L172Q, P10242”, -0.117 ± 0.1; as for “Transcriptional activator Myb L172R, P10242”, -0.279 ± 0.056.

The substance “Transcriptional activator Myb L172S, P10242” had an abundance fitness of -0.236 ± 0.085. As for “Transcriptional activator Myb L172T, P10242”, the figure is -0.359 ± 0.11; as for “Transcriptional activator Myb L172V, P10242”, -0.36 ± 0.073. The figure for “Transcriptional activator Myb L172W, P10242” is -0.303 ± 0.089; for “Transcriptional activator Myb L173A, P10242” it is -0.623 ± 0.11. The figure for “Transcriptional activator Myb L173C, P10242” is 0.012 ± 0.12; for “Transcriptional activator Myb L173D, P10242” it is -0.958 ± 0.22; for “Transcriptional activator Myb L173E, P10242” it is -0.621 ± 0.088. With “Transcriptional activator Myb L173G, P10242”, the abundance fitness was -1.08 ± 0.11.

“Transcriptional activator Myb L173I, P10242” came in with an abundance fitness of 0.253 ± 0.44. As for “Transcriptional activator Myb L173M, P10242”, the figure is -0.305 ± 0.12. On to “Transcriptional activator Myb L173P, P10242”, for which the abundance fitness is -0.656 ± 0.23. Take “Transcriptional activator Myb L173Q, P10242”: the abundance fitness was -1.13 ± 0.25.

“Transcriptional activator Myb L173R, P10242”: the abundance fitness is -0.961 ± 0.078. The figure for “Transcriptional activator Myb L173S, P10242” is -0.933 ± 0.11; for “Transcriptional activator Myb L173T, P10242” it is -0.28 ± 0.12. The figure for “Transcriptional activator Myb L173V, P10242” is -0.127 ± 0.093; for “Transcriptional activator Myb L173W, P10242” it is -0.968 ± 0.11; for “Transcriptional activator Myb L173Y, P10242” it is -0.627 ± 0.31.
